These results are taken from paper PMC6603146.

Assay [1] addresses human chemokine CXCL8 (IL-8), commercial recombinant (human). Description: ELISA; 50 pg chemokine mixed in solution with 2-400 ng recombinant M3 in 110 ul, 21 C, 1.5 h with gentle shaking, then applied to DuoSet sandwich ELISA plates; drop of OD492 against chemokine without M3 = % inhibition; IC25/IC50 = M3 concentration that removes 25 or 50% of the chemokine; three independent experiments.

The target of assay [2] is human chemokine CCL5 (RANTES), commercial recombinant (human) (UniProt P13501). The assay is described as above.
Chain of UniProt P13501 (P13501 24-91): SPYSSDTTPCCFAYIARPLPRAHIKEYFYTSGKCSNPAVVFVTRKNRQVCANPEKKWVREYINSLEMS

pIC50: −log10 of the molar value.

For “wild-type M3 protein of murine gammaherpesvirus 68 (MHV-68), recombinant, C-terminal His-tag (natural protein)”, the concentration for an effect of 25% (IC25) in assay [1] stood at 0.0087 µM; in assay [2], 0.0071 µM. In addition, the pIC50 in assay [2] is 7.79.

For the substance “M3-T272G mutant of MHV-68 M3 protein, recombinant, C-terminal His-tag (natural protein)”, in assay [1], the IC25 was 0.0425 µM. Moreover, in assay [2], the concentration for an effect of 25% (IC25) amounted to 0.0302 µM and the pIC50 is under 7.05.

For the substance “M3-E70A mutant of MHV-68 M3 protein, recombinant, C-terminal His-tag (natural protein)”, the 25% effect concentration (IC25) was 0.0115 µM in assay [1] and 0.0035 µM in assay [2]. Moreover, in assay [2], the negative-log IC50 (pIC50) is 8.06.
